The target of test [1] is T1, mouse Keap1-DC (aa321-609) (mouse, UniProt Q9Z2X8 321-609).
T1 construct: also called Keap1-DC domain
The test can be described thus: isothermal titration calorimetry. Background: ITC needs no label: the signal is the heat of the interaction.
Description: (§1) First, isothermal titration calorimetry was performed using MicroCal iTC₂₀₀ System (GE Healthcare) at 25° C. […] The binding data were analyzed using Origin 7 software (GE healthcare).

In test [2] the target is T1, mouse Keap1-DC (aa321-609). The test is described as follows: isothermal titration calorimetry, 25 C, peptide injected into Keap1-DC.
Description: as §1

Where no end group is shown, it is not given here. [ ]: non-standard residue; d: D form. pS = N[C@@H](COP(=O)(O)O)C(=O)O

T1 sequence (Q9Z2X8 321-609 limits assumed): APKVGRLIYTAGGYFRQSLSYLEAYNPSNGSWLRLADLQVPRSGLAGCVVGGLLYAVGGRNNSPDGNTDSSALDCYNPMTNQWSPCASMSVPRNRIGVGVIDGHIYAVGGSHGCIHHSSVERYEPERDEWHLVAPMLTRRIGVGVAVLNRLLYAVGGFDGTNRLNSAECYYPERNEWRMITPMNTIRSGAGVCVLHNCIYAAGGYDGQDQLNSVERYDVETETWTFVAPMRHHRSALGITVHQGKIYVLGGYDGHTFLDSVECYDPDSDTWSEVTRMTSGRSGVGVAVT

B1: phosphorylated KIR (VDP(pS)TGELQ) of mouse p62 (peptide)
peptide: VDP[pS]TGELQ
notes: also called phosphorylated p62-KIR; KIR in mouse phosphorylated p62
B1: the “fold binding affinity against KIR in the non-phosphorylated p62” value in test [1] is ~100 times. The Ka in test [2] stood at 5.12e+06 M⁻¹.

B2: non-phosphorylated KIR (348-VDPSTGELQ-356) of mouse p62 (peptide)
peptide: VDPSTGELQ
notes: also called non-phosphorylated p62-KIR; KIR in mouse non-phosphorylated p62
As to B2, in test [2], the Ka was found to be 56700 M⁻¹.

For LDEETGEFL (also called ETGE motif of mouse Nrf2) [Nrf2-ETGE motif (76-LDEETGEFL-84) of mouse Nrf2], the Ka in test [2] was 6.83e+06 M⁻¹.

For the origin of these results see patent publication US20140162292A1 (TOKYO METROPOLITAN INSTITUTE OF MEDICAL SCIENCE, published 2014).
